Results on 19 sequences are retold here after a protein production outcome set (Wang et al. 2014).

The data set can be described thus: label from the status in PepcDB records.

On to “MLNSRRIVVVLPAYNAEKTLEMTYAEIPFEHVDHVLLVDDASRDRTAQVAERLGIKTIVHDRNKGYGANQKTCYRAALDLGADIVIMVHPDYQYTPKLITAMAAMIAYGEFDAVLGSRILGIGALKGGMPLYKYVANRVLTLVENLLLSHKLSEYHTGYRAFSRQVLEQLPLDANGDDFVFDNQMLAQIIWHGYRIGELSCPTKYFEDASSINFRRSVIYGLGVLGTALEFRLARMGLIRSGRFTPRNDQAAAQLEHHHHHH”, for which the protein production entry was “not failed”.
The value for “MLNTSDIGKVFPSVTAVVEKGRLRFFAKAIGENNPIYTDEAAAKDAGYESLPMPPTFFFSLKMDVPNPFENYEKVGASLAKILHANQAFVYHQSVVAGDSLTFESHIADIYDKKAGALEFLVEKTKVSNQRGQHVADMTTTLVVRNLEHHHHHH” was “failed”; that for “MLPADGIVCFPGQTWEKVLSKVKKAVVFMDDRCSESLHWNGGAALLFEAGARNIKQFSSFEAGAQNEPKAVFVVSTVLKGRTADIIKDIISLSHFQYCVVFTTVPHSIHLLANNVNADLEGNPVFEQFEEKLCEWMGDMNYTAEVMHAPVVFAPLTEHLHLLPAFSNLFPLLDVDLESINEKRPEKKRFGSLMDMDVHSLPPGLQIQIKTLALTLNGLFEFISTREESFSVGPMSRLIATELANLPQAKNRRKTAPNKASVVFVDRTLDLTGAVGHHGDNLAEKILSVLPQLPGHVTDVQVDMLELTHLKPTTDTKGILAPGCLAQNQSATAKLLWETMLVAKQKEAVIEVRRQLVEAASKENLPIKMSLGRVTAEQLCSYVQLFRDSWGALESHSGVLQLGLAAAQALRHPALQRWDACLAFERLLLQALGDSDLAGVLKQLLPLIKSSESGTGSDLSMDDLLVLLVYVYSVAKEACSGGSEEEKQVEKVEQELIGALTLRLTRETTLSPLVQEVTGVSCPEELTMECAHSVLESMFGTLRGVARARDHLKNFSSVFTPGDGAHQDQHRYILILMIQDQHQ” was “failed”.
The value for “MLPFANYYISSPSVSEKNAINNNVNKRRKKKRAMMVYGGGGGGDDLAVVKAAAWAWYLRKEGKPIMREFDVTRAQRIPRPSRYKIEATKNMILSENRVLAENRVSSTKSPLWYTNYQFRGDQETYYSRLLDTYETKNISKRLNIDDSSFSTSLSSVLKHNGDDHHNHNRNDDYGFDDHGLLKKRNGSDSNTTTRSKTNNDKSYNGGFMKKVSKRSLWKGMIVMGPGSTVCGRSDDVASQAGRRTVKVAVAAEALVRSAASGSGKTQSGHC” was “failed”.
The entry for “MLPNLNRIPQVEQYVLDYLDDLQCQHFEGDIATNYADRLSLATDNSVYQQLPQAILFPKTVADIVRITKLANLPEYQSISFTPRGGGTGTNGQSINNNIIVDLSRHMTA” is “failed”; for “MLPPYNYMDNGTLKGISIDLLEAITEKMGKKVTREEIHLVSWTEGYQAALTRNNTVLFVTARTPEREQSFKWVGPIYSDKYVLFAKRDPGVTIDGPEDLKEYRIGVISDDLEHHHHHH” it is “failed”.
For the sequence “MLQAGTKKFLREYGSTCAPLFLALGVCLICCLPAACPKENFIDENAISVSRVPVITGMLGELHMDTRISQYTRVVRGRRSVGSESIAVYVNAAFESSVVLANHLIYVLREKENMACDTNFYFFNDTSKDWPIPDSFVRAAIVINVTSFHTNNLCFNVFGANGMQPNQDLFNLAVAIAEKWRFNIDVLCQNPYISFSTSRPIYEHYFLALQTALVAPLRYQPWYKMRSRGISLLAISTEKSERRTKSSYGYNMAAAHEQLIATLSYLHERFHHSTSVWIPLSVDQYVEYDVIQFATILFVASLLSTCYSIYEVEGFSFSPCAALVSATGLAALVSTLNFGTAGFFVSSGVLTVGLGAFSWDMSWGAINAVVLCLLIILQPVAGLVMGFGATLQLQFIHVRCRKWHVLLIGAILSWIVLVALTEVMKAKLFDTETTAGVYFSFFLYPNALWISSRLIRSTLGA”, the protein production entry was “failed”.
The entry for “MLQGKVSVIVPAYNAARLLERCVRSITGQTYPALEVIVVDDGSKDDTGKIADQLAAEDSRIRVVHKTNGGVSAARNDALKLVEGEWITFVDSDDYLEPDFLRSLLDGEVADLVIGGYHTVGANEIPSANYPTDTAHSPEAIKRALEARLTDMTFLCPWGKLFRTSLVRSLRLIFNTEMKVGEDVVFVWSYLAHCSSLAFKQGQGYDYYTEPGADFKYALDETVSLQTIERILGVLDGLKRNFGMDTEHARCHVLNYYIWLFKLYVNRNYLLRDLARMKNFFYYPLILDYYKTYRRTSKDKLLVYLLLKLRLSGVLYLMIKLYYLEHHHHHH” is “not failed”.
For the sequence “MLQLTRVSRLMNIHCGALMNLKQQYQTSLITDALLHSLQTHSVCTTPSETIDSALNSDGMDRQWMSFFYLPELNSTTVNKIKSILSSFTEVGYIEIDQQTHHLAIYHDGPITPIEKNLEKQGIDVVFQQTQANYIPEPIDWKQIKKRHQILSWLFSINLIMLMVTFFTGLIASSTALIALALIIMSDVMIYAMTLYGIHEKQIGLYKFTRVGLYLQISLSLLLILAVIFQSVLQHQPLAQLIILVAALAFFTMLINMYLLIQTQQERPDLLNFRQWFSFYDVMFSFAVIVAGICCLLFDSNWPDITITTLMVFFLLDRSRRVFKKKTSFVVQ”, the protein production entry is on record as “failed”.
For the sequence “MLRGILWDMDGTLVDSEGIWAQATFAMSTEMGRRLTAAQQRETVGSSFNFTVSLCASNAGIELDSEAKNYWQSFMSHYVTEKFDSSLLPNPGIKEVLDSCRNAEIPMAIATNTIRSIANHSIGAVGIEYFKATVCGDEVANPKPAPDVYLKGAQALGVPPEGCIVFEDSKSGMLGGLAAGCIVISVVDHLNNQPLPEGVVPLSRLHGSADFRGVSAEEIMQWYATLSPNAQ”, the protein production result is on record as “failed”.
The value for “MLRGVAALVVYKGKPALAEEKGGRLELTLEGGARQRVRPKDVLFLHPGPASLDLKVPEGEEEAAWELLEGQTVSLRELAELVYGAYTPEAALGAYLLAQKGERFVLEGEGVRARTREELLALQEAERKRAERERAFQEALKRLKEGSPAPEDRPLLAEVEALARGERKESPVLRALNLPETPEAAHAFLLRLGLWQRENPHPRRLGLPLQPPDLPVPPLPEEDRVDLTHLPAFAIDDEGSQDPDDAVFAEKVEGGFRLFVHVADVAALVPPKSPLDEEALRRGANLYLPEGTVPMLPPAVTEALGLGLREVSPALTFELWVSEEGELLEERVYPSWVRVTRLTYREALGVEALRPLEALAEAFRAKRLAAGALEIALPEVKVRVEGEEVRITPLPPYPSRVWVREAMLLAGYAAAHLAVREGLPFPFATQEAPARRVEGEGLAAMWEQRKALKRAQLKAVPAPHKGLGLPLYAQVTSPLRRYLDLVAHQQLRAWLKGERPLSQAEVLERVGAAEAVADLVREAERKSKLHWTLLHLEAKGYEGPGVLVERRGGQGVFLLPELGLTAQVALPKALPLNAEARLRFLEADLPALEARFALV” was “failed”.
For the sequence “MLRHIVLLILLSSEVRGVCNRIPQGASGPRSPVDDNFKILIDGNPETYVPEHQYNVSLSCPINMKFVSFTLVVEAEDPSAAFGGQDMTGHFELLGVGDTRFSTSCENMVENTNTNAKIYIAVSWIAPRNPDSGCVLIKAGVVQHRDVWFLDDGFLTKRICPEEIDELNSLTPPLETCCACDEAKYEIVLERKWARNTHWKDFPSEDWRTRLGEVIGASHSHSYRYWAYGGRASKGMKELAEHGATRTLENEIRENTQNGEVRTIIKAPGIPYRPKTFGTTLANARLDPVHHQISLAAKIDPSPDWILGVAGLELCLSNCTWLERKSSDEPQVPPDVVRRITSSYPSDHRSPFYDDTGAPMKPLATLYLTRKKLYIRECEEVLVPQEGPLECAVHPWNEWTNCSTRCGQGYSHRQRSFKNPNLAANFNCDRRLEEFRQCQGTQCGAAEEELEGEEPGLGMENPPSSGSMAECQLTNWGEWSPCTKTCGRGSSTRTRDYYNPQARQRCLSVMRIPLEETRECIGSDCGGTIPDNGELDGFPEPDVFGETDHGGYMGKTTSWNSKQEHSSLGSGNQAWNRKPYNSWKDKSLSNPRDNAQESPNLPFDQIENPQRPAYNPSDNMGGYDKGFPPTNSYSNDKLVGNRPGYNDFNSDYNNKDAYNDYTTPSFTSRTPFGSRYPNQQETVEGNTNDINGNYNVVQDYCFEKPYASTLPCFAKPVVESNYWFYDHEDHECKIFTTDNCDQNRNRFRTLTACEGTCLQPQINMERSENDAMDLYGRRSYDQKQTRDHISKQEVDPMINQKIGPMTYRQQEVDPMEKPVKQVILENPCRRPGADTTHPDAVGMAAEQIKAFKSPKLEENKY”, the protein production result was “failed”.
The entry for “MLRKNILAYYGANFLLIIAQSLPHAILTPLLLSKGLSLSEILLVQTFFSFCVLVAEYPSGVLADLMSRKNLFLVSNAFLIASFSFVLFFDSFIFMLLAWGLYGLYSACSSGTIEASLITDIKENKKDLSKFLAKNNQITYLGMIIGSSLGSFLYLKVHAMLYIVGIFLIMLCVLTIIFYFKEKEGDFKSQKSLKLLKEQVKGSLKELKDNPKLKILLVGHLITPVFFMSHFQMWQAYFLKQGVKEQYLFVFYIAFQVISILIHFLKASSYSQKIALSSLVVLLGVSPLLLSNIPYCFIGVYALMVAFFTYMSYCLNYQFSKFVSKNNISSLSSLLSSCVRVVSVLILSLSSLELRYFSPLTIITMHFALTLIILFFFLYKAKPFDE” is “failed”.
“MLRRIVALAAVAAGGMMLSKTFRKSRDSGYTSSVENFIEVNVPVSTAYNQWTQFEEFPRFMKGVREVQQIDDTHLHWRAEIAGKEEEWDAEITEQVPDQRIAWHSTNGAKNSGVVSFYGISDSKTRVVLKMDYGPRTFLEGLGDALGAVKARTSEDLRCFKEFLESRGKETGAWRGSVGQH”: the protein production result is “failed”.
The value for “MLRSLLVPLFSNAASSTDDHGITLPQYQVFINFRGDELRNSFVGFLVKAMRLEKINVFTDEVELRGTNLNYLFRRIEESRVAVAIFSERYTESCWCLDELVKMKEQMEQGKLVVVPVFYRLNATACKRFMGAFGDNLRNLEWEYRSEPERIQKWKEALSSVFSNIGLTSDIRRYNLINKNMDHTSEFLYIVLILNFFSEISDMTGLTTSYQFLLMMKSNLISYDIYIYPTKFCVNVFIGV” was “failed”.
Regarding “MLRSTVIVTAHRRKAFIKDAIESVMENSLKPTEIIVVKNFKDYQIDSFLETYHVKNIYTDDETLGGKISLGIYQSSGDILFFLDDDDLFSKDKIREVIYKFSKYDIGFYHNAQEVIHNKLTGSNLSTDNQRFMYYTSIDTRRLKELLYKFKAGFNGSSIVISRDLAMRCVDLLKNVNISVDTFLLFCAVENNLPIMIDFRKLTYYRIIMSQNSNTEVNDKLFKMLYEDALYFKQIFSSKALRDFIEMSIIQHDFLYKIISKKEISKRDALISMVKMLRYSLKYPNKWNFFLQGLSLLSVFSAEKSRSLYLKKVRSNSMLSILEHHHHHH”, the protein production entry is on record as “not failed”.
In the case of “MLSEQKEIAMQVSGMTCAACAARIEKGLKRMPGVTDANVNLATETVNVIYDPAETGTAAIQEKIEKLGYHVVTEKAEFDIEGMTCAACANRIEKRLNKIEGVANAPVNFALETVTVEYNPKEASVSDLKEAVDKLGYKLKLKGEQDS”, the protein production result is “not failed”.
On to “MLSFLSARQSGLEDPLRLRRAQSTRRVLGLELNKDRDVERIHGSGVNTLDIEPVEGRYMLSGGSDGVVVLYDLENASRQPHYTCKAVCSVGRSHPDVHKYSVETVQWYPHDTGMFTSSSFDKTLKVWDTNTLQAADVFNFEETVYSHHMSPAATKHCLVAVGTRGPKVQLCDLKSGSCSHILQGHRQEILAVSWSPRHDYILATASADSRVKLWDVRRASGCLLTLDQHNGKKSQAAESANTAHNGKVNGLCFTSDGLHLLTIGTDNRMRLWNSSSGDNTLVNYGKVCNDSRKGLQFAVSCGCSSEFVFVPHGSTIAVYAVHSGERLAMLKGHYKSVDCCVFQPNFQELYSGSRDCNILAWVPPSYEPVPDDDDEAPAKSQLNPAFADAWSSSDEDG”, for which the protein production entry is “failed”.
On to “MLSFVVMSFLIFVIVMVNEHKAHLSVIQKMILAVVNGSITIILSIIVFYIFYPQNISLFLITAGILTVFVFLYGLLLFLFGFTHRELSYLSKYDKYKFLCKFTIEMFSSLTNHAFLTISAIVLYQIQHPKPTIDFIVMIGMITISVIVVMLLFLKTYSIIIKQLKKLENN”, for which the protein production result is recorded as “failed”.
